These are literature values, as cited in US20180022822A1, “NOVEL ANTI-FIBROBLAST ACTIVATION PROTEIN (FAP) BINDING AGENTS AND USES THEREOF” (Mabimmune Diagnostics AG, priority 2016, published 2018).

The conditions of data set [1]: pH 7.8.
The conditions of data set [2]: in vivo.

Consider `CC(C)[C@H](N)C(=O)N1CCC[C@H]1B(O)O` [Talabostat, Val-boroPro], for which the “stability of inhibitory activity” value in data set [1] was “rapidly loses inhibitory activity”.

With “Sibrotuzumab: humanized version of the F19 antibody that specifically binds to human FAP”, in data set [2] (human), the “patients with change in pharmacokinetics and reduced tumor uptake” value is reported as 4 of 26. Moreover, in data set [2], the “patients who developed human-anti-human antibodies (HAHA)” value was 8 of 26.
